Measured values: patent EP3727588B1 (UNIVERSITA' DEGLI STUDI DI MILANO, dated 2019)

Assays:
[1] = target: AP2 clathrin adaptor complex (in COS7 cells); test: cell-based or functional assay
[2] = target: T1, α-adaptin subunit of AP2 (rat) (rat, UniProt P58197); test: co-IP with anti-ADAM10, α-adaptin blot; rat acute hippocampal slices, 10 µM, 30 min; competitor ADAM10 (Fig. 1B)
T1 construct: Detected by Western blot as a read-out of the whole AP2 complex

[3] = target: T1, α-adaptin subunit of AP2 (rat); test: co-IP with anti-ADAM10; rat primary hippocampal neurons, 1 µM, 30 min; competitor ADAM10 (Fig. 1D)

T1 sequence (P58197 whole entry): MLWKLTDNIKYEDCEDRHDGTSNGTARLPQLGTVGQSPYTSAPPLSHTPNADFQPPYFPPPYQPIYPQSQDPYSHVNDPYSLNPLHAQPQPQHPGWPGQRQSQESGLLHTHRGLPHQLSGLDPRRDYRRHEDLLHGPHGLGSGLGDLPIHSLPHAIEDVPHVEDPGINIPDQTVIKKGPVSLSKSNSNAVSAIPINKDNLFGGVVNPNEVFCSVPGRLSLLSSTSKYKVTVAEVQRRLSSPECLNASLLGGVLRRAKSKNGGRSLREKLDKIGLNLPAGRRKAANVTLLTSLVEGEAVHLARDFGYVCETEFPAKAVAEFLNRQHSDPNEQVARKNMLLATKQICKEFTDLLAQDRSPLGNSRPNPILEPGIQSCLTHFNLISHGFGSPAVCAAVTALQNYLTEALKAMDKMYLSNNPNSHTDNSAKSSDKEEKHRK

Binder	internalization index of TacADAM10-RAR (fluorescence-based antibody uptake, COS7 cells, 1 µM, 30 min) [1] [%]	PEP/inPEP ratio of α-adaptin co-immunoprecipitated with ADAM10 (OD) [2] [%]	PEP/inPEP ratio of α-adaptin co-immunoprecipitated with ADAM10 (OD) [3] [%]
YGRKKRRQRRRGGSGLPPEQEPRL [inPEP2]	-1.84	–	–
YGRKKRRQRRRGGSGQPPEQEPRG [inPEP3]	1.3	–	–
YGRKKRRQRRRGGSGLPPRQRPRL [PEP2]	-10.9	41.6	33.9
YGRKKRRQRRRGGSGQPPRQRPRG [PEP3]	-12.8	37.4	10.8
